Results on 5 variants are retold here after IntAct's records for PubMed 29892012.

B1: Transmembrane protein 218 (Homo sapiens), A2RU14 (parent)
chain: MAGTVLGVGAGVFILALLWVAVLLLCVLLSRASGAARFSVIFLFFGAVIITSVLLLFPRAGEFPAPEVEVKIVDDFFIGRYVLLAFLSAIFLGGLFLVLIHYVLEPIYAKPLHSY
partner: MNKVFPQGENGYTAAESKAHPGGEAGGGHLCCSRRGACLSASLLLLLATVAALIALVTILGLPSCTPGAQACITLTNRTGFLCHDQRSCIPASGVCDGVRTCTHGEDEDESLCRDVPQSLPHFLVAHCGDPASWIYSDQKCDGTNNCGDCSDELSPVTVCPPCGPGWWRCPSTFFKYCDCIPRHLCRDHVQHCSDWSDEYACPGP
B2: Cell division cycle-associated 7-like protein (Homo sapiens), Q96GN5 (parent)
chain: MELATRYQIPKEVADIFNAPSDDEEFVGFRDDVPMETLSSEESCDSFDSLESGKQQDVRFHSKYFTEELRRIFIEDTDSETEDFAGFTQSDLNGKTNPEVMVVESDLSDDGKASLVSEEEEDEEEDKATPRRSRSRRSSIGLRVAFQFPTKKLANKPDKNSSSEQLFSSARLQNEKKTILERKKDCRQVIQREDSTSESEDDSRDESQESSDALLKRTMNIKENKAMLAQLLAELNSMPDFFPVRTPTSASRKKTVRRAFSEGQITRRMNPTRSARPPEKFALENFTVSAAKFAEEFYSFRRRKTIGGKCREYRRRHRISSFRPVEDITEEDLENVAITVRDKIYDKVLGNTCHQCRQKTIDTKTVCRNQGCCGVRGQFCGPCLRNRYGEDVRSALLDPDWVCPPCRGICNCSYCRKRDGRCATGILIHLAKFYGYDNVKEYLESLQKELVEDN
partner: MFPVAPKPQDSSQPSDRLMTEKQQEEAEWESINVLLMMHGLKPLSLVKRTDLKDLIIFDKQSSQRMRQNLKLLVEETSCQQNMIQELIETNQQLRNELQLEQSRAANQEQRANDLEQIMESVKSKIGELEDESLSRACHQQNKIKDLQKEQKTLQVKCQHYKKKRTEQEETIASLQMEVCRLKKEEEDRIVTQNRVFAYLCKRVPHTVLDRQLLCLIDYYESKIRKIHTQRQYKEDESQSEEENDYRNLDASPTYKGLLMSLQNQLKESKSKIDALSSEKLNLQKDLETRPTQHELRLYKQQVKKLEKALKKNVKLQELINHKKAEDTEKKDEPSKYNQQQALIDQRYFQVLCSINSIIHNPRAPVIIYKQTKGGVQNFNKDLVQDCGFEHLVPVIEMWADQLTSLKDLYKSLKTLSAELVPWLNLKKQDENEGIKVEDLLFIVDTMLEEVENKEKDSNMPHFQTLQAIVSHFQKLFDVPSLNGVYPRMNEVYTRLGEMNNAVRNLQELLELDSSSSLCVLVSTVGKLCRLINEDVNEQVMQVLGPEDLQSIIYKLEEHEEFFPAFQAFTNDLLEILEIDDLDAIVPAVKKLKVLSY
B3: SOSS complex subunit C (Homo sapiens), Q9NRY2 (parent)
chain: MAANSSGQGFQNKNRVAILAELDKEKRKLLMQNQSSTNHPGASIALSRPSLNKDFRDHAEQQHIAAQQKAALQHAHAHSSGYFITQDSAFGNLILPVLPRLDPE
B4: TBC1 domain family member 22B (Homo sapiens), Q9NU19 (parent)
chain: MAAENSKQFWKRSAKLPGSIQPVYGAQHPPLDPRLTKNFIKERSKVNTVPLKNKKASSFHEFARNTSDAWDIGDDEEEDFSSPSFQTLNSKVALATAAQVLENHSKLRVKPERSQSTTSDVPANYKVIKSSSDAQLSRNSSDTCLRNPLHKQQSLPLRPIIPLVARISDQNASGAPPMTVREKTRLEKFRQLLSSQNTDLDELRKCSWPGVPREVRPITWRLLSGYLPANTERRKLTLQRKREEYFGFIEQYYDSRNEEHHQDTYRQIHIDIPRTNPLIPLFQQPLVQEIFERILFIWAIRHPASGYVQGINDLVTPFFVVFLSEYVEEDVENFDVTNLSQDMLRSIEADSFWCMSKLLDGIQDNYTFAQPGIQKKVKALEELVSRIDEQVHNHFRRYEVEYLQFAFRWMNNLLMRELPLRCTIRLWDTYQSEPEGFSHFHLYVCAAFLIKWRKEILDEEDFQGLLMLLQNLPTIHWGNEEIGLLLAEAYRLKYMFADAPNHYRR
B5: Multifunctional procollagen lysine hydroxylase and glycosyltransferase LH3 (Homo sapiens), O60568 (parent)
chain: MTSSGPGPRFLLLLPLLLPPAASASDRPRGRDPVNPEKLLVITVATAETEGYLRFLRSAEFFNYTVRTLGLGEEWRGGDVARTVGGGQKVRWLKKEMEKYADREDMIIMFVDSYDVILAGSPTELLKKFVQSGSRLLFSAESFCWPEWGLAEQYPEVGTGKRFLNSGGFIGFATTIHQIVRQWKYKDDDDDQLFYTRLYLDPGLREKLSLNLDHKSRIFQNLNGALDEVVLKFDRNRVRIRNVAYDTLPIVVHGNGPTKLQLNYLGNYVPNGWTPEGGCGFCNQDRRTLPGGQPPPRVFLAVFVEQPTPFLPRFLQRLLLLDYPPDRVTLFLHNNEVFHEPHIADSWPQLQDHFSAVKLVGPEEALSPGEARDMAMDLCRQDPECEFYFSLDADAVLTNLQTLRILIEENRKVIAPMLSRHGKLWSNFWGALSPDEYYARSEDYVELVQRKRVGVWNVPYISQAYVIRGDTLRMELPQRDVFSGSDTDPDMAFCKSFRDKGIFLHLSNQHEFGRLLATSRYDTEHLHPDLWQIFDNPVDWKEQYIHENYSRALEGEGIVEQPCPDVYWFPLLSEQMCDELVAEMEHYGQWSGGRHEDSRLAGGYENVPTVDIHMKQVGYEDQWLQLLRTYVGPMTESLFPGYHTKARAVMNFVVRYRPDEQPSLRPHHDSSTFTLNVALNHKGLDYEGGGCRFLRYDCVISSPRKGWALLHPGRLTHYHEGLPTTWGTRYIMVSFVDP
partner: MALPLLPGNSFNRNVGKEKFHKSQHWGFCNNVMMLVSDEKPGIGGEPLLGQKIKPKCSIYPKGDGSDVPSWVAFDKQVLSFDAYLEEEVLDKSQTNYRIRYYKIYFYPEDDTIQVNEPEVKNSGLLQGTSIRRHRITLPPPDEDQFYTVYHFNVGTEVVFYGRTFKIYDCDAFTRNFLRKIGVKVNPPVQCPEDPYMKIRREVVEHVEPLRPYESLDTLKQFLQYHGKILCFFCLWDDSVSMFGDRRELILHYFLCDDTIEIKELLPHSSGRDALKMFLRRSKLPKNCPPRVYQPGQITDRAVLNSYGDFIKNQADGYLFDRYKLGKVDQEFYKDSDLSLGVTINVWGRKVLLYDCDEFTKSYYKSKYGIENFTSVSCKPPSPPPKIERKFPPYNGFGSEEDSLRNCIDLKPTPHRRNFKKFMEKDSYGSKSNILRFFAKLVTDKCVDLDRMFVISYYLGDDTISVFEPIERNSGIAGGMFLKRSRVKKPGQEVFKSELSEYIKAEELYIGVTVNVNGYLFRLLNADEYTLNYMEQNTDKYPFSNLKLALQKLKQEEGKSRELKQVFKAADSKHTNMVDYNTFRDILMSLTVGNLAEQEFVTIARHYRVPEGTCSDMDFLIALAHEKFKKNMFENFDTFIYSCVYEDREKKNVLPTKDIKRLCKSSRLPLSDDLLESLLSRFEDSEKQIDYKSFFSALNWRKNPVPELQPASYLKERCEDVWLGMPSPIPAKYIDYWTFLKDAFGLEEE

The variants in the first assay derive from B1. The note with it: with lrad1_human LDLRAD1, Q5T700.
P66S: the “effect of a mutation on the interaction” value is “with no effect”.

Variants of B2 are the subject of the next assay. The note with it: with cep70_human CEP70, Q8NHQ1.
R268H: the “effect of a mutation on the interaction” value is “with no effect”.

The variants in a further assay derive from B3. The following applies: with rbpms_human RBPMS.
Consider K28T, for which the “effect of a mutation on the interaction” value was “with no effect”.

The variants in a further assay derive from B4. The following applies: with fxr2_human FXR2, P51116.
Chain of fxr2_human FXR2, P51116 (P51116 whole entry): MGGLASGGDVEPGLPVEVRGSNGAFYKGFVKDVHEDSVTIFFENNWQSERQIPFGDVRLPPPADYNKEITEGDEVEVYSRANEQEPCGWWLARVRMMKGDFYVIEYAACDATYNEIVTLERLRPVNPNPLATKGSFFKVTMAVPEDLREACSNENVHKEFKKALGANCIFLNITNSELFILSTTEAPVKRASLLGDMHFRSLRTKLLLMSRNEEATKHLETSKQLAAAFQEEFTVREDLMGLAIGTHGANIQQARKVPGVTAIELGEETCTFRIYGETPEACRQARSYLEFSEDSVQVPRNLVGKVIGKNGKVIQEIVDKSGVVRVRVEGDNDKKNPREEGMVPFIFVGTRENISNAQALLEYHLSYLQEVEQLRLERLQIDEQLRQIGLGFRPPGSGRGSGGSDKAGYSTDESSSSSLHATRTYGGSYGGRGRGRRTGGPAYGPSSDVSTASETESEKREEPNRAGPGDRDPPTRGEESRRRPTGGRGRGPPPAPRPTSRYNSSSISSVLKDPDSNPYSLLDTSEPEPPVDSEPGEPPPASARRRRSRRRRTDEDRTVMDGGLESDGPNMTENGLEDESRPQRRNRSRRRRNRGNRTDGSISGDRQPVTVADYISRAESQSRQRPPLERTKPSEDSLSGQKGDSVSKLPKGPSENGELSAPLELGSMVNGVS
For the variant A349T, the “effect of a mutation on the interaction” value is “disrupting interaction strength”.

In the next assay the parent is B4. The note with it: with ikzf3_human IKZF3, Q9UKT9.
Chain of ikzf3_human IKZF3, Q9UKT9 (Q9UKT9 whole entry): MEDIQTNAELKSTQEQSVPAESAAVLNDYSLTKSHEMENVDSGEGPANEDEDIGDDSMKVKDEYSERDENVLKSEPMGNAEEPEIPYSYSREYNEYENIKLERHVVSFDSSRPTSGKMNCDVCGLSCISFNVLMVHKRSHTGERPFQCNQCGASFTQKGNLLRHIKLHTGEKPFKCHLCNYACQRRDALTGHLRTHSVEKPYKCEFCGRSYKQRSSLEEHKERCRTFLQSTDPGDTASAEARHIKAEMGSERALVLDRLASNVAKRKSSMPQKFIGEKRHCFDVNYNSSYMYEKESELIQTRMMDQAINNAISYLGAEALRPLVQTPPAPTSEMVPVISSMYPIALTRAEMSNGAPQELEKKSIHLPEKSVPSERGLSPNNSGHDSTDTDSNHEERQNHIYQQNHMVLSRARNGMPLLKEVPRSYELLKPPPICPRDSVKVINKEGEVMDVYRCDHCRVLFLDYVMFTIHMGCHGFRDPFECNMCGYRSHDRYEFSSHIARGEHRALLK
Regarding A349T, the “effect of a mutation on the interaction” value was “disrupting interaction strength”.

A further assay covers variants of B4. The note with it: with tacc3_human TACC3, Q9Y6A5.
Turning to A349T, the “effect of a mutation on the interaction” value is “disrupting interaction strength”.

Variants of B4 are the subject of another assay. The note with it: with tri23_human TRIM23, P36406.
Chain of tri23_human TRIM23, P36406 (P36406 whole entry): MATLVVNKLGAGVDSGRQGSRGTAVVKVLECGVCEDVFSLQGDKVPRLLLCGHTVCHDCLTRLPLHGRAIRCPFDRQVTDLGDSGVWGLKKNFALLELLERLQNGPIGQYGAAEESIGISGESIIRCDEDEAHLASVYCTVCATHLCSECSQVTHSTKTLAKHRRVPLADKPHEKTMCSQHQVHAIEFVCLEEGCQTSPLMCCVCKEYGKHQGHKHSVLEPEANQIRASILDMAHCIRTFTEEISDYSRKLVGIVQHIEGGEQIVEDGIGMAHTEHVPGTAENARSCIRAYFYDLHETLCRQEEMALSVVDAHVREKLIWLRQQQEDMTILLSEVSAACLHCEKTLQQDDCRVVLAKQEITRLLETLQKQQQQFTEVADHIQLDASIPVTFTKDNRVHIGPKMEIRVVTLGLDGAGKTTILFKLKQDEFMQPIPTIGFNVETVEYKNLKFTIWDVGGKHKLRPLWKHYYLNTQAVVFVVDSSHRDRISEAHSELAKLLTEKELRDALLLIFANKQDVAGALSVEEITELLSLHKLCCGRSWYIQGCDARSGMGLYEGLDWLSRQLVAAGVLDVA
On to A349T, for which the “effect of a mutation on the interaction” value is reported as “disrupting interaction strength”.

Variants of B4 are the subject of a further assay. The note with it: with pnma5_human PNMA5, Q96PV4.
Chain of pnma5_human PNMA5, Q96PV4 (Q96PV4 whole entry): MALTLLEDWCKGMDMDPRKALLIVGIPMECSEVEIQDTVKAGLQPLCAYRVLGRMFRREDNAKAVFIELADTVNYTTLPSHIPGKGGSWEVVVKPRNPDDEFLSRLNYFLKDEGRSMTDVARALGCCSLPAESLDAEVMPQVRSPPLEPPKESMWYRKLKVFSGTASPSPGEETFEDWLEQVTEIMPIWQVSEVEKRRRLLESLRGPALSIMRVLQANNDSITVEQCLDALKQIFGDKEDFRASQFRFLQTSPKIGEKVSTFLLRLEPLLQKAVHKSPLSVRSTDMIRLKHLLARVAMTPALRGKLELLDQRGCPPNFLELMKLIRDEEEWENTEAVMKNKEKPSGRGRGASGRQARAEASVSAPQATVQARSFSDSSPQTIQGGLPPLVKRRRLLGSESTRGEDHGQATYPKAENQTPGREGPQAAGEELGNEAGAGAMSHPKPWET
In the case of A349T, the “effect of a mutation on the interaction” value is reported as “disrupting interaction strength”.

In a further assay the parent is B5. The note with it: with efhc2_human EFHC2, Q5JST6.
With R235Q, the “effect of a mutation on the interaction” value was “with no effect”.
